Data on one molecule can be found in patent US20060217308A1, “Compositions for the treatment of tumor pathologies, comprising internalin B (ln1B) of Listeria monocytogene protein or a fragment thereof” (priority 2005, published 2006).

Common to all, as to assay type: cell-based, human
In assay [1] the test system is Met. In words: In1B-induced ubiquitination of Met (anti-Met immunoprecipitation, anti-ubiquitin blot) in HeLa cells. Here is the method: (A) Listeria monocytogenes EGD (BUG600) (MOI 25) or purified In1B (5 nM) were added (+) for two minutes to HeLa cells. Samples were immunoprecipitated against Met and blotted against ubiquitin using P4D1 monoclonal antibody. (B) In1B was added to HeLa cells for two minutes and samples were re-immunoprecipitated against Met. Samples were blotted against ubiquitin (Ub) or Met. (C) Increasing amounts of In1B were added to HeLa cells (1 to 6 corresponding to 0, 0.22, 0.44, 0.88, 1.75, […], 5 nM respectively) for two minutes. Extracts were immunoprecipitated against Met and blotted against Met or ubiquitin (Ub). (D) As C, but 1 to 6 correspond to 0, 3.5, 10, 20, 40, 80 nM In1B, respectively. (E) 5 nm of purified In1B was added to HeLa cells for the indicated times. Cell extracts were immunoprecipitated (IP) against Met and blotted (WB) against Met or ubiquitin (Ub). At the left of all panels the molecular weight markers are indicated in kDa. In C and D, 8% acrylamide gels were used, while 10% acrylamide gels were used in A, B, and E.
Met, sequence (P08581 25-1390): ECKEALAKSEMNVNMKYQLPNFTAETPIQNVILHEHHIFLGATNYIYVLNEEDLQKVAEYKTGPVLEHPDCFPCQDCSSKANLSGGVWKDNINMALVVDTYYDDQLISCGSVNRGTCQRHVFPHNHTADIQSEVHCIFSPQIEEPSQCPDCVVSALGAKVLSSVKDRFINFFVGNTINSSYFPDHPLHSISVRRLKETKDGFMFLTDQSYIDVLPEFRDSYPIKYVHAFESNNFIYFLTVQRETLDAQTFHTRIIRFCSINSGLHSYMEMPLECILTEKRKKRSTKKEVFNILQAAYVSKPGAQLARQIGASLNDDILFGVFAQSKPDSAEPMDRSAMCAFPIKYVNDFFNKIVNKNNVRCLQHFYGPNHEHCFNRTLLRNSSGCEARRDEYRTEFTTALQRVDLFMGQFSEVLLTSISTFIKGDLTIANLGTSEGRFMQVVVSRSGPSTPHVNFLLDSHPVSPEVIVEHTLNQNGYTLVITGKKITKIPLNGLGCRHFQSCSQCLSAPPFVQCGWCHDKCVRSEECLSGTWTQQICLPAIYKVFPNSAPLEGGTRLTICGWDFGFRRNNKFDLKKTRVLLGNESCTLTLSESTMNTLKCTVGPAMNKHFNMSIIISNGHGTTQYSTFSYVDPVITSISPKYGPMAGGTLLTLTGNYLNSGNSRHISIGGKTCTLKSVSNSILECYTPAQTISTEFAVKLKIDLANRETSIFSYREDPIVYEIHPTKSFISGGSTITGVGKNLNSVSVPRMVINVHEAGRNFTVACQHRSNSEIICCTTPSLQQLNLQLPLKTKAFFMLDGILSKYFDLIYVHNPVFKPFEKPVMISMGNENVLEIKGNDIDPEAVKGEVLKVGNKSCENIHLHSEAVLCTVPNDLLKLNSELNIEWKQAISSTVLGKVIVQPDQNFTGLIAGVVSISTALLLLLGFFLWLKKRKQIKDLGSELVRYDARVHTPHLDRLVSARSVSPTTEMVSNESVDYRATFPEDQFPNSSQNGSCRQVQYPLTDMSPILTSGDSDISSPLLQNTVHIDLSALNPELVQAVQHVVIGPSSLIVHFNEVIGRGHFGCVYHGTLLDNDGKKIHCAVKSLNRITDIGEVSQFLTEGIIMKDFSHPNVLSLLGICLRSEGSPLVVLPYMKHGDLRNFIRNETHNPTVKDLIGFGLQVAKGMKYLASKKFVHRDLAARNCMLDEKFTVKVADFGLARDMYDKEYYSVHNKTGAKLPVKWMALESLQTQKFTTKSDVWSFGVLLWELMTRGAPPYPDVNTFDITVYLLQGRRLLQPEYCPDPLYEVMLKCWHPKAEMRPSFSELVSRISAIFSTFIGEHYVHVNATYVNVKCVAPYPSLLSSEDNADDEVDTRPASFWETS
Cells, bacteria and growth conditions. The human cell line used was HeLa (ATCC number CCL-2) grown as recommended by ATCC. Typically, cells were serum starved for three hours before the addition of In1B. The bacterial strains used were Listeria monocytogenes BUG600 and BUG1461. They were grown in BHI medium, which in the case […] contained 5 μg/ml of erythromycin.
Assays. Immunoprecipitation, Re-immunoprecipitation, and immunoblots were performed as described before (31). In1B purification was performed as described (54).
It has been previously described that the ubiquitin ligase Cbl is recruited to the Met complex during the first minute after cell treatment with soluble In1B (31). Whether Listeria infection promotes ubiquitination of Met was studied. Epithelial HeLa cells were infected with Listeria monocytogenes (at a m.o.i. 25) or treated with purified In1B (5 nM) (FIG. 1A) for two minutes. Cellular extracts were immunoprecipitated using an antibody that recognizes Met and ubiquitination of immunoprecipitated proteins was tested with an anti-ubiquitin antibody. A clear increase in the amount of ubiquitinated proteins associated with Met was detected after infection with Listeria.
To assess whether the signal observed after In1B treatment corresponded to Met ubiquitination, a re-immunoprecipitation assay was performed. Anti-Met immunoprecipitates from cells samples treated (or not) with In1B were denatured (boiled in presence of 1% SDS), to dissociate Met complexes, and re-immunoprecipitated using anti-Met antibodies. The resulting samples were immunoblotted against ubiquitin (FIG. 1B left panel) and Met (FIG. 1B right panel). Ubiquitin was only detectable in the lane corresponding to In1B treated samples, whereas Met was present in both lanes corresponding to In1B-treated or non-treated samples.
In order to determine the minimal amount of In1B necessary to trigger Met ubiquitination, HeLa cells were treated with increasing amount of In1B for two minutes. Cell extracts were then immunoprecipitated using the anti-Met antibody and blotted with anti ubiquitin or anti Met antibodies (FIGS. 1C and 1D). 1.75 nM of In1B was sufficient to induce ubiquitination of Met. […] Note that ubiquitinated Met migrated slower and than non-ubiquitinated in 8% acrylamide SDS-PAGE gels (FIGS. 1C and 1D), in agreement with an increase in apparent molecular weight of ubiquitinated proteins. Again, Met detection was always weaker after ubiquitination, supporting the previous observation that ubiquitination of Met was leading to Met degradation.
Next, the kinetics of In1B-dependent ubiquitination of Met were tested. In1B (5 nM) was added during increasing time periods to HeLa cells and cell extracts were immunoprecipitated using anti-Met antibodies (FIG. 1E). In1B-induced ubiquitination was maximal two minutes after treatment and declined thereafter. […]

Assay [2] has as its system Met. The experiment in a line: Maintenance of InIB-induced degradation of Met in the presence of HGF. Particulars: HeLa cells, HGF 1 nM + InIB 5 nM, 1% serum medium. Here is the method: FIG. 9 depicts immunodetection of Met from total cell lysates. Serum-containing media (1%) with HGF (1 nM), HGF (1 nM)+InIB (5 nM), or without either HGF or InIB (control) was added to HeLa cells. Cells were recovered at the indicated times after addition of HGF, and HGF+InIB, resuspended in SDS-PAGE sample buffer, and immediately boiled for 5 minutes.
Shortly after InIB treatment, Met is very rapidly degraded. Thus, whether InIB-induced degradation of Met is maintained for longer periods of time was tested. In fact, InIB-induced degradation of Met is maintained in time.

Assay [3] has as its system Met. The experiment in a line: Nature of In1B-dependent ubiquitination of Met (FK1 versus P4D1 antibodies). Particulars: HeLa cells, In1B 5 nM, FK1 did not recognize. Here is the method: (A) In1B was added (+) to HeLa cells. Lysates were immunoprecipitated using C12 rabbit polyclonal anti-Met antibody and blotted against Met (DL21 mAb). The same membrane was stripped and blotted against ubiquitin using FK1, a mAb that recognizes poly-ubiquitinated proteins, or P4D1, a mAb that recognizes both poly- and mono-ubiquitinated proteins. (B) Total cell extracts from Hela cells treated with […] epoximycin (lane 2) or […] clasto-lactacystin-β-lactone (lane 3) for 60 minutes, or non-treated cells (lane 1) were blotted against poly-ubiquitin (FK1) or actin. (C) ubiquitin ladder was blotted with FK1 or P4D1. The number of ubiquitin modules is indicated on the right. The molecular weight of protein markers is shown in the left of the panels, in kDa. In D and E, Hela Cells were transfected with siRNA to knock down Cbl expression (RNAi), or with RNA control (Control). (D) Cellular Cbl and actin were detected by immunoblotting. […]
The rapid degradation of Met after In B contact is different from the HGF-dependent degradation, which has been reported to take two hours (19-21), indicating differences in the biochemistry of the process. […] Samples from HeLa cells treated with In1B (5 nM) were immunoprecipitated using an anti-Met antibody, and then Met-immunoprecipitates were analyzed with an anti Met mAb (FIG. 3A1), FK1 (FIG. 3A2) or P4D1 (FIG. 3A3). […]

B1: In1B: Listeria monocytogenes surface protein of the internalin family that interacts with Met; purified soluble protein (protein, UniProt P0DQD2 31-630, looked up)
Internalin B: AKVQAETITVPTPIKQIFSDDAFAETIKDNLKKKSVTDAVTQNELNSIDQIIANNSDIKSVQGIQYLPNVTKLFLNGNKLTDIKPLANLKNLGWLFLDENKVKDLSSLKDLKKLKSLSLEHNGISDINGLVHLPQLESLYLGNNKITDITVLSRLTKLDTLSLEDNQISDIVPLAGLTKLQNLYLSKNHISDLRALAGLKNLDVLELFSQECLNKPINHQSNLVVPNTVKNTDGSLVTPEIISDDGDYEKPNVKWHLPEFTNEVSFIFYQPVTIGKAKARFHGRVTQPLKEVYTVSYDVDGTVIKTKVEAGTRITAPKPPTKQGYVFKGWYTEKNGGHEWNFNTDYMSGNDFTLYAVFKAETTEKAVNLTRYVKYIRGNAGIYKLPREDNSLKQGTLASHRCKALTVDREARNGGKLWYRLKNIGWTKAENLSLDRYDKMEYDKGVTAYARVRNASGNSVWTKPYNTAGAKHVNKLSVYQGKNMRILREAKTPITTWYQFSIGGKVIGWVDTRALNTFYKQSMEKPTRLTRYVSANKAGESYYKVPVADNPVKRGTLAKYKNQKLIVDCQATIEGQLWYRIRTSSTFIGWTKAANLRAQK
As to B1, in the assay with Met [1] (In1B 5 nM), the “time of maximal In1B-induced ubiquitination of Met” value is on record as “two” and the “time of new wave of Met ubiquitination after addition of In1B” value was 30 min. Further, the “time at which a new band corresponding to Met appeared after addition of In1B” value in the assay with Met [1] (In1B 5 nM, anti-Met blot of immunoprecipitates) came to 15 min. Besides, the “ubiquitination of Met after In1B treatment (re-immunoprecipitation assay)” value with Met [1] (In1B two minutes, re-immunoprecipitated anti-Met, blot anti-ubiquitin) is given as “induces the ubiquitination of Met”. Moreover, the “minimal amount of In1B necessary to trigger Met ubiquitination” value in the assay with Met [1] (increasing amount of In1B for two minutes) amounted to 1.75 nM. Also, the “Met ubiquitination using higher amount of In1B” value with Met [1] (two minutes, 3.5 to 80 nM In1B (FIG. 1D)) is “did not significantly increase”. Moreover, the “time for which InIB-induced degradation of Met is maintained” value in the assay with Met [2] is listed as “at least 24 hours”. The “nature of In1B-dependent ubiquitination of Met” value in the assay on Met [3] is listed as “mono-ubiquitination rather than poly-ubiquitination”.
